{
  "source": "patent US7462599",
  "proteins": {"B1": {"name": "recombinant human glutaminyl cyclase (QC, EC 2.3.2.5) (protein)", "chain": "VSPSASAWPEEKNYHQPAILNSSALRQIAEGTSISEMWQNDLQPLLIERYPGSPGSYAARQHIMQRIQRLQADWVLEIDTFLSQTPYGYRSFSNIISTLNPTAKRHLVLACHYDSKYFSHWNNRVFVGATDSAVPCAMMLELARALDKKLLSLKTVSDSKPDLSLQLIFFDGEEAFLHWSPQDSLYGSRHLAAKMASTPHPPGARGTSQLHGMDLLVLLDLIGAPNPTFPNFFPNSARWFERLQAIEHELHELGLLKDHSLEGRYFQNYSYGGVIQDDHIPFLRRGVPVLHLIPSPFPEVWHTMDDNEENLDESTIDNLNKILQVFVLEYLHL"}},
  "key": {"H-Gln-Gly-Pro-OH": {"molecular_target": "T1, H-Gln-Gly-Pro-OH", "T1 chain": "QGP"}, "[1]": {"molecular_target": "T2, H-Gln-Ala-Ala-Ser-Ala-Ala-NH2", "T2 chain": "QAASAA"}, "[2]": {"molecular_target": "T3, H-Gln-cyclo(Nε-Lys-Arg-Pro-Ala-Gly-Phe)", "T3 chain": "QKRPAGF"}, "H-Gln-Arg-Gly-Ile-NH2": {"molecular_target": "T4, H-Gln-Arg-Gly-Ile-NH2", "T4 chain": "QRGI"}, "H-Gln-Gly-OH": {"molecular_target": "T5, H-Gln-Gly-OH", "T5 chain": "QG"}, "H-Gln-Tyr-OH": {"molecular_target": "T6, H-Gln-Tyr-OH", "T6 chain": "QY"}, "H-Gln-Ser-Tyr-Phe-NH2": {"molecular_target": "T7, H-Gln-Ser-Tyr-Phe-NH2", "T7 chain": "QSYF"}, "[3]": {"molecular_target": "T8, H-βhomoGln-Phe-Lys-Arg-Leu-Ala-NH2", "T8 chain": "QFKRLA"}, "H-Gln-Pro-Tyr-Phe-NH2": {"molecular_target": "T9, H-Gln-Pro-Tyr-Phe-NH2", "T9 chain": "QPYF"}, "H-Gln-Tyr-Ala-OH": {"molecular_target": "T10, H-Gln-Tyr-Ala-OH", "T10 chain": "QYA"}, "H-Gln-Trp-Ala-NH2": {"molecular_target": "T11, H-Gln-Trp-Ala-NH2", "T11 chain": "QWA"}, "H-Gln-Glu-Ala-Ala-NH2": {"molecular_target": "T12, H-Gln-Glu-Ala-Ala-NH2", "T12 chain": "QEAA"}, "H-Gln-Phe-Ala-NH2": {"molecular_target": "T13, H-Gln-Phe-Ala-NH2", "T13 chain": "QFA"}, "H-Gln-Glu-Ala-Phe-NH2": {"molecular_target": "T14, H-Gln-Glu-Ala-Phe-NH2", "T14 chain": "QEAF"}, "H-Gln-Val-OH": {"molecular_target": "T15, H-Gln-Val-OH", "T15 chain": "QV"}, "[4]": {"molecular_target": "T16, H-Gln-Ala-Ala-Ala-Ala-NH2", "T16 chain": "QAAAA"}, "H-Gln-Glu-Tyr-NH2": {"molecular_target": "T17, H-Gln-Glu-Tyr-NH2", "T17 chain": "QEY"}, "[Gln^1]-GnRH": {"molecular_target": "T18, [Gln^1]-GnRH", "T18 chain": "QHWSYGLRPG"}, "H-Gln-Glu-OH": {"molecular_target": "T19, H-Gln-Glu-OH", "T19 chain": "QE"}, "H-Gln-Glu-Tyr-Ala-NH2": {"molecular_target": "T20, H-Gln-Glu-Tyr-Ala-NH2", "T20 chain": "QEYA"}, "H-Gln-Ala-OH": {"molecular_target": "T21, H-Gln-Ala-OH", "T21 chain": "QA"}, "[5]": {"molecular_target": "T22, [Gln^5]-substance P(5-11)", "T22 chain": "QQFFGLM"}, "Gln^3-Aβ(3-11)a": {"molecular_target": "T23, Gln^3-Aβ(3-11)a", "T23 chain": "QFRHDSGYE"}, "H-Gln-Glu-Tyr-Phe-NH2": {"molecular_target": "T24, H-Gln-Glu-Tyr-Phe-NH2", "T24 chain": "QEYF"}, "H-Gln-Lys-Arg-Leu-NH2": {"molecular_target": "T25, H-Gln-Lys-Arg-Leu-NH2", "T25 chain": "QKRL"}, "H-Gln-Asn-Gly-Ile-NH2": {"molecular_target": "T26, H-Gln-Asn-Gly-Ile-NH2", "T26 chain": "QNGI"}, "H-Gln-Ala-NH2": {"molecular_target": "T27, H-Gln-Ala-NH2", "T27 chain": "QA"}, "H-Gln-Arg-Tyr-Phe-NH2": {"molecular_target": "T28, H-Gln-Arg-Tyr-Phe-NH2", "T28 chain": "QRYF"}, "H-Gln-His-Tyr-Phe-NH2": {"molecular_target": "T29, H-Gln-His-Tyr-Phe-NH2", "T29 chain": "QHYF"}, "H-Gln-Glu-Asp-Leu-NH2": {"molecular_target": "T30, H-Gln-Glu-Asp-Leu-NH2", "T30 chain": "QEDL"}, "H-Gln-Gln-OH": {"molecular_target": "T31, H-Gln-Gln-OH", "T31 chain": "QQ"}, "H-Gln-Gln-Tyr-Phe-NH2": {"molecular_target": "T32, H-Gln-Gln-Tyr-Phe-NH2", "T32 chain": "QQYF"}},
  "data": [
    {"protein": "B1", "values": [
      {"measurement": "KM (substrate conversion by QC)", "setting": "H-Gln-Gly-Pro-OH", "result": 130, "unit": "µM"},
      {"measurement": "KM (substrate conversion by QC)", "setting": "[1]", "result": 79, "unit": "µM"},
      {"measurement": "KM (substrate conversion by QC)", "setting": "[2]", "result": "KM-values of 240±14 µM and 133±5 µM for human and papaya QC, respectively"},
      {"measurement": "KM (0.05 M Tris-HCl, pH 8.0)", "setting": "H-Gln-Arg-Gly-Ile-NH2", "result": 0.166, "unit": "mM"},
      {"measurement": "KM (0.05 M Tris-HCl, pH 8.0, 0.5 M KCl)", "setting": "H-Gln-Arg-Gly-Ile-NH2", "result": 0.091, "unit": "mM"},
      {"measurement": "KM (substrate conversion by QC)", "setting": "H-Gln-Arg-Gly-Ile-NH2", "result": 143, "unit": "µM"},
      {"measurement": "KM (substrate conversion by QC)", "setting": "H-Gln-Gly-OH", "result": 247, "unit": "µM"},
      {"measurement": "KM (substrate conversion by QC)", "setting": "H-Gln-Tyr-OH", "result": 211, "unit": "µM"},
      {"measurement": "KM (substrate conversion by QC)", "setting": "H-Gln-Ser-Tyr-Phe-NH2", "result": 55, "unit": "µM"},
      {"measurement": "KM (substrate conversion by QC)", "setting": "[3]", "result": "KM=2.5±0.2 mM"},
      {"measurement": "KM (substrate conversion by QC)", "setting": "H-Gln-Pro-Tyr-Phe-NH2", "result": 1890, "unit": "µM"},
      {"measurement": "KM (substrate conversion by QC)", "setting": "H-Gln-Tyr-Ala-OH", "result": 101, "unit": "µM"},
      {"measurement": "KM (0.05 M Tris-HCl, pH 8.0)", "setting": "H-Gln-Trp-Ala-NH2", "result": 0.054, "unit": "mM"},
      {"measurement": "KM (0.05 M Tris-HCl, pH 8.0, 0.5 M KCl)", "setting": "H-Gln-Trp-Ala-NH2", "result": 0.056, "unit": "mM"},
      {"measurement": "KM (substrate conversion by QC)", "setting": "H-Gln-Trp-Ala-NH2", "result": 50, "unit": "µM"},
      {"measurement": "KM (substrate conversion by QC)", "setting": "H-Gln-Glu-Ala-Ala-NH2", "result": 77, "unit": "µM"},
      {"measurement": "KM (substrate conversion by QC)", "setting": "H-Gln-Phe-Ala-NH2", "result": 69, "unit": "µM"},
      {"measurement": "KM (substrate conversion by QC)", "setting": "H-Gln-Glu-Ala-Phe-NH2", "result": 39, "unit": "µM"},
      {"measurement": "KM (substrate conversion by QC)", "setting": "H-Gln-Val-OH", "result": 196, "unit": "µM"},
      {"measurement": "KM (substrate conversion by QC)", "setting": "[4]", "result": 65, "unit": "µM"},
      {"measurement": "KM (substrate conversion by QC)", "setting": "H-Gln-Glu-Tyr-NH2", "result": 79, "unit": "µM"},
      {"measurement": "KM (substrate conversion by QC)", "setting": "[Gln^1]-GnRH", "result": 53, "unit": "µM"},
      {"measurement": "KM (0.05 M Tris-HCl, pH 8.0)", "setting": "H-Gln-Glu-OH", "result": 0.373, "unit": "mM"},
      {"measurement": "KM (0.05 M Tris-HCl, pH 8.0, 0.5 M KCl)", "setting": "H-Gln-Glu-OH", "result": 0.607, "unit": "mM"},
      {"measurement": "KM (substrate conversion by QC)", "setting": "H-Gln-Glu-OH", "result": 359, "unit": "µM"},
      {"measurement": "KM (substrate conversion by QC)", "setting": "H-Gln-Glu-Tyr-Ala-NH2", "result": 69, "unit": "µM"},
      {"measurement": "KM (0.05 M Tris-HCl, pH 8.0)", "setting": "H-Gln-Ala-OH", "result": 0.269, "unit": "mM"},
      {"measurement": "KM (0.05 M Tris-HCl, pH 8.0, 0.5 M KCl)", "setting": "H-Gln-Ala-OH", "result": 0.357, "unit": "mM"},
      {"measurement": "KM (substrate conversion by QC)", "setting": "H-Gln-Ala-OH", "result": 232, "unit": "µM"},
      {"measurement": "substrate conversion, determined qualitatively by MALDI-TOF", "setting": "[5]", "result": "*"},
      {"measurement": "KM (buffer containing 1% DMSO)", "setting": "Gln^3-Aβ(3-11)a", "result": 155, "unit": "µM"},
      {"measurement": "KM (substrate conversion by QC)", "setting": "H-Gln-Glu-Tyr-Phe-NH2", "result": 47, "unit": "µM"},
      {"measurement": "KM (0.05 M Tris-HCl, pH 8.0)", "setting": "H-Gln-Lys-Arg-Leu-NH2", "result": 0.051, "unit": "mM"},
      {"measurement": "KM (0.05 M Tris-HCl, pH 8.0, 0.5 M KCl)", "setting": "H-Gln-Lys-Arg-Leu-NH2", "result": 0.034, "unit": "mM"},
      {"measurement": "KM (substrate conversion by QC)", "setting": "H-Gln-Lys-Arg-Leu-NH2", "result": 54, "unit": "µM"},
      {"measurement": "KM (substrate conversion by QC)", "setting": "H-Gln-Asn-Gly-Ile-NH2", "result": 172, "unit": "µM"},
      {"measurement": "KM (substrate conversion by QC)", "setting": "H-Gln-Ala-NH2", "result": 155, "unit": "µM"},
      {"measurement": "KM (substrate conversion by QC)", "setting": "H-Gln-Arg-Tyr-Phe-NH2", "result": 55, "unit": "µM"},
      {"measurement": "KM (substrate conversion by QC)", "setting": "H-Gln-His-Tyr-Phe-NH2", "result": 68, "unit": "µM"},
      {"measurement": "KM (0.05 M Tris-HCl, pH 8.0)", "setting": "H-Gln-Glu-Asp-Leu-NH2", "result": 0.06, "unit": "mM"},
      {"measurement": "KM (0.05 M Tris-HCl, pH 8.0, 0.5 M KCl)", "setting": "H-Gln-Glu-Asp-Leu-NH2", "result": 0.061, "unit": "mM"},
      {"measurement": "KM (substrate conversion by QC)", "setting": "H-Gln-Glu-Asp-Leu-NH2", "result": 55, "unit": "µM"},
      {"measurement": "KM (substrate conversion by QC)", "setting": "H-Gln-Gln-OH", "result": 148, "unit": "µM"},
      {"measurement": "KM (substrate conversion by QC)", "setting": "H-Gln-Gln-Tyr-Phe-NH2", "result": 41, "unit": "µM"}
    ]}
  ]
}
